B1: Chemokine (C-C motif) ligand 3 (protein, listed as Homo sapiens)
chain: MQVSTAALAVLLCTMALCNQFSASLAADTPTACCFSYTSRQIPQNFIADYFETSSQCSKPGVIFLTKRSRQVCADPSEEWVQKYVSDLELSA
notes: class 1 immunomodulator

Legend:
S. aureus = S. aureus surgical site infection, implant model; type: in vivo; conditions: S. aureus 10^6 CFU, titers after 1 day, compared to PBS, FIGS. 5A and 5B
Excerpt: FIGS. 5A and 5B illustrate that PAMPs are effective in controlling S. aureus surgical site infection as prophylactic antibiotic standard therapy. S. aureus (10^6 CFU). S. aureus titers after 1 day. Significance determined as compared to PBS *<0.05, **p<0.01, ***p<0.001, ****p<0.0001.
We next examined the impact of CCL3 topical treatment on leukocyte migration by H&E staining, and on leukocyte activation by myeloperoxidase (MPO) measurements by ELISA. (MPO is primarily used as a marker for neutrophil activation but it can also be expressed to lesser extent in macrophages).
(§1) Implant surgery and wound surgery and surgical site infection are performed according to the following method. On the day of surgery, all mice are anesthetized by an intraperitoneal injection of a ketamine/xylazine mixture (90 mg/kg ketamine+5 mg/kg xylazine for mice). The back of the animals is shaved using an electric shave and scrubbed with alcohol swabs 3 times, a topical antiseptic solution (Hibiclens; chlorhexidine gluconate) is applied to the skin. The surgical procedures are performed with sterile instruments, sterile surgical gloves, and aseptic techniques as follows. For wound surgical procedure, a sterile biopsy punch (5-7 mm diameter) is used to punch through the full thickness of the back skin below the shoulder blades. Four 5-7 mm skin wounds are made on the back of each mouse. […]

[1] = test system: diabetic uninfected wounds; test: Wound healing in diabetic uninfected wounds; type: in vivo, db/db mice; conditions: FIG. 14
Excerpt: FIG. 14 illustrates CCL3 enhances wound healing in diabetic uninfected wounds.
(§2) As discussed above immunomodulatory therapies enhance infection control in both normal and diabetic models. FIGS. 11A-11C illustrate that CCL3 increases infection control (11A) increases collagen deposition (11B) and enhances wound healing (11C) in diabetic wounds. Immunomodulators may also be used to enhance wound healing in uninfected diabetic wounds.
as §1, with “mouse. Wounds placed in this area cannot be reached by the animals and therefore are protected from self-licking.” for “mouse.”

diabetic wounds = test: Collagen deposition and wound healing in infected diabetic wounds; type: in vivo, db/db mice; conditions: P. aeruginosa PA103 10^3 infected, compared to PBS
Excerpt: FIGS. 11A-11C illustrate that CCL3 increases infection control (11A), collagen deposition (11B) and enhances wound healing (11C) in diabetic wounds. P. aeruginosa PA103 10^3N=4; Significance determined as compared to PBS *<0.05, **p<0.01, ***p<0.001.
as §2, §1

Molecule | infection control in the implant model against S. aureus (S. aureus) | wound healing in diabetic uninfected wounds [1] | collagen deposition in diabetic wounds (diabetic wounds; FIG. 11B) | wound healing in diabetic wounds (diabetic wounds; FIG. 11C)
CSCC[C@H](NC=O)C(=O)N[C@@H](CC(C)C)C(=O)N[C@@H](Cc1ccccc1)C(=O)O [fMLP, N-Formylmethionyl-leucyl-phenylalanine] | improved |  |  | 
lipopolysaccharide [LPS] | improved |  |  | 
B1 |  | enhances | increases | enhances

Source: patent publication US20210268070A1, “Use of Immunomodulators to Control Infection and Stimulate Healing in Normal and Diabetic Wounds” (priority 2018, published 2021)
